Measurements reported in patent publication US20170321220A1 (INDIANA UNIVERSITY RESEARCH AND TECHNOLOGY, published 2017).
Where two headings read alike, the source gives them in different places.

Key:
[1] = target: P22 procapsid (PC) after removal of the Dec-binding sub-population (bacteriophage P22 (filing: P22 VLP from Salmonella typhimurium)) (UniProt P26747); assay: SEC-QELS, particle radius of hydration after incubation with DecWT; PC control row 26.4±0.5
[2] = target: P22 procapsid (PC) after removal of the Dec-binding sub-population (bacteriophage P22 (filing: P22 VLP from Salmonella typhimurium)) (UniProt P26747); assay: SEC retention shift after incubation with DecWT; PC control row 0±0.001
[3] = target: P22 procapsid (PC) after removal of the Dec-binding sub-population (bacteriophage P22 (filing: P22 VLP from Salmonella typhimurium)) (UniProt P26747); assay: SEC-MALS, number of Dec monomers calculated from the difference between bound and control particle molecular weight; PC control row 0±43
[4] = target: P22 procapsid (PC) after removal of the Dec-binding sub-population (bacteriophage P22 (filing: P22 VLP from Salmonella typhimurium)) (UniProt P26747); assay: SEC-MALS, particle molecular weight after incubation with DecWT; PC control row 22.8±0.7
[5] = target: T1, EX P22 VLP (expanded form of the bacteriophage P22 virus-like particle) (bacteriophage P22 (filing: P22 VLP from …, UniProt P26747 2-430)); assay: SPR, EX P22 immobilised, two-site fit, low-affinity site
T1 sequence (P26747 2-430 limits assumed): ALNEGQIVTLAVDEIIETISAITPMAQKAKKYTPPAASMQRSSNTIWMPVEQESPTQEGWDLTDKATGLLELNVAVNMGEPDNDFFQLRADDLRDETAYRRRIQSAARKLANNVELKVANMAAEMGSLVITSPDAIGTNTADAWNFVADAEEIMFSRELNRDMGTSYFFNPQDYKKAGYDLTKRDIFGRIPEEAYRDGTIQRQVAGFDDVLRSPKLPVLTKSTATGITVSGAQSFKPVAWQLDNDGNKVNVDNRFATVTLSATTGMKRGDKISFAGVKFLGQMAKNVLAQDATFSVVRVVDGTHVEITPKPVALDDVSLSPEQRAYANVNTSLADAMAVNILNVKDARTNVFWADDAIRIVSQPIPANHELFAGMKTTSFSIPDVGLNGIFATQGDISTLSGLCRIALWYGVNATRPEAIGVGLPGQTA

[6] = target: T1, EX P22 VLP (expanded form of the …); assay: SPR, EX P22 immobilised, two-site fit, tighter site
[7] = target: T1, EX P22 VLP (expanded form of the …)
[8] = target: T1, EX P22 VLP (expanded form of the …); assay: SPR, EX P22 immobilised, two-site global fit; site 2, column 'Ka2 (M-1 s-1)'
[9] = target: T1, EX P22 VLP (expanded form of the …); assay: SPR, single-site fit
[10] = target: T1, EX P22 VLP (expanded form of the …); remark: listed apart in the source
[11] = target: T1, EX P22 VLP (expanded form of the …); assay: SEC retention shift of P22 upon Dec binding; EX control row 0±0.008
[12] = target: T1, EX P22 VLP (expanded form of the …); assay: SEC-QELS, particle radius of hydration with Dec bound; EX control row 28.4±0.7
[13] = target: T1, EX P22 VLP (expanded form of the …); assay: SPR, EX P22 immobilised, single-site fit of the low concentrations
[14] = target: T1, EX P22 VLP (expanded form of the …); assay: SPR, from the fitted parameters
[15] = target: T1, EX P22 VLP (expanded form of the …); assay: SPR, two-site fit with the tight-site kd fixed at the value of the 4 h dissociation
[16] = target: T1, EX P22 VLP (expanded form of the …); assay: SPR, extended 4 h dissociation, two independent sites, tight site
[17] = target: T1, EX P22 VLP (expanded form of the …); assay: SEC-MALS, particle molecular weight with Dec bound; EX control row 20.5±0.2
[18] = target: T1, EX P22 VLP (expanded form of the …); assay: SPR, EX P22 immobilised, two-site fit, high-affinity site
[19] = target: T1, EX P22 VLP (expanded form of the …); assay: SPR, extended 4 h dissociation, two independent sites, weak site
[20] = target: T1, EX P22 VLP (expanded form of the …); assay: SPR, EX P22 immobilised, two-site global fit; site 2, column 'KD2 (nM)'
[21] = target: T1, EX P22 VLP (expanded form of the …); assay: SPR, EX P22 immobilised, two-site global fit; site 1, column 'Kd1 (s-1 x 10-4)'

P22 procapsid (PC) after removal of the Dec-binding sub-population (bacteriophage P22 (filing: P22 VLP from Salmonella typhimurium)), sequence (P26747 2-430, chain 1 of 2): as the sequence (P26747 2-430 limits assumed) above
P22 procapsid (PC) after removal of the Dec-binding sub-population (bacteriophage P22 (filing: P22 VLP from Salmonella typhimurium)), sequence (P26748 whole entry, chain 2 of 2, further chain): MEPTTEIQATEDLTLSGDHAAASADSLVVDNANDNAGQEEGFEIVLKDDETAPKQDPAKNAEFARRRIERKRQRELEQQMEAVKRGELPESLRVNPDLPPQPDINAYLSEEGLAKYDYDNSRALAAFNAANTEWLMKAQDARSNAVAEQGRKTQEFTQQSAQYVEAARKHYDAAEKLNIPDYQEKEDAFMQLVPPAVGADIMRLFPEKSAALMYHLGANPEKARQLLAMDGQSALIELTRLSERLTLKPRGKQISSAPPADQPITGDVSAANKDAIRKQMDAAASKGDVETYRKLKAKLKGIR

Molecule | Kd [5] [µM] | Kd [6] [µM] | koff [6] [s⁻¹] | kon [6] [M⁻¹ s⁻¹] | koff [7] [s⁻¹] | kon [8] [M⁻¹ s⁻¹] | Kd [7] [µM] | retention shift [11] [min] | Rh (nm) [12] [nm] | MW (MDa) [17] [MDa] | further results
DecWT |  |  |  |  |  |  |  |  |  |  | Rh (nm) [1]: 26.6 nm; retention shift [2]: 0.03 min; Dec monomers [3]: 24 monomers; MW (MDa) [4]: 23.2 MDa
DecmCD40L (Dec fused at its C-terminus to the soluble region of murine CD40L) (ligand) MGSSHHHHHHSQDPMANPNFTPSWPLYKDADGVYVSALPIKAIKYANDGSANAEFDGPYADQYMSAQTVAVFKPEVGGYLFRSQYGELLYMSKTAFEANYTSASGSVANAETADKLSTARTITLTGAVTGSASFDGSANVTIETTSGSELQRGDEDPQIAAHVVSEANSNAASVLQWAKKGYYTMKSNLVMLENGKQLTVKREGLYYVYTQVTFCSNREPSSQRPFIVGLWLKPSSGSERILLKAANTHSSSQLCEQQSVHLGGVFELQAGASVFVNVTEASQVIHRVGFSSFGLLKL | 1.42 | 0.0308 | 0.0002 | 6440 | 0.0068 | 4820 |  |  |  |  | 
DecΔ20 (Dec lacking the first 20 N-terminal residues) (other) MGSSHHHHHHSQDPVSALPIKAIKYANDGSANAEFDGPYADQYMSAQTVAVFKPEVGGYLFRSQYGELLYMSKTAFEANYTSASGSVANAETADKLSTARTITLTGAVTGSASFDGSANVTIETTSGS |  |  |  |  | 0.00024 |  | 3.45 |  |  |  | fold reduction in KD from the high-affinity site of DecWT [9]: > 300 fold; Kd [10]: 3.5 µM
DecWT (other, also called Dec with an N-terminal his-tag) MGSSHHHHHHSLVPRGSQDPMANPNFTPSWPLYKDADGVYVSALPIKAIKYANDGSANAEFDGPYADQYMSAQTVAVFKPEVGGYLFRSQYGELLYMSKTAFEANYTSASGSVANAETADKLSTARTITLTGAVTGSASFDGSANVTIETTSGS | 1.5 |  |  |  | 0.00182 |  | 0.446 | 0.619 | 29.6 | 23 | koff [5]: 0.00298 s⁻¹; kon [5]: 1980 M⁻¹ s⁻¹; Kd [13]: 0.024 µM; koff [13]: 0.00033 s⁻¹; kon [13]: 13800 M⁻¹ s⁻¹; half-life of binding at the tight-site [14]: ≥ 60 h; Kd [15]: 0.000255 µM; koff [16]: 3.2e-06 s⁻¹; Kd [18]: 0.0092 µM; koff [18]: 0.000106 s⁻¹; kon [18]: 11500 M⁻¹ s⁻¹; koff [19]: 0.00095 s⁻¹
DecSelf (Dec fused at its C-terminus to the 21 amino acid CD47 mimic Self-peptide) (other) MGSSHHHHHHSQDPMANPNFTPSWPLYKDADGVYVSALPIKAIKYANDGSANAEFDGPYADQYMSAQTVAVFKPEVGGYLFRSQYGELLYMSKTAFEANYTSASGSVANAETADKLSTARTITLTGAVTGSASFDGSANVTIETTSGSELGNYTCEVTELTREGETIIELK | 0.146 | 0.0183 | 0.0002 | 11200 | 0.00323 | 2190 |  | 0.5 | 29.6 | 22.6 | Kd [20]: 0.146 µM
DecΔ11 (Dec lacking the first 11 N-terminal residues) (other) MGSSHHHHHHSQDPLYKDADGVYVSALPIKAIKYANDGSANAEFDGPYADQYMSAQTVAVFKPEVGGYLFRSQYGELLYMSKTAFEANYTSASGSVANAETADKLSTARTITLTGAVTGSASFDGSANVTIETTSGS |  |  |  |  | 0.0044 | 38300 |  | 0.595 | 30.1 | 23.6 | kon [7]: 9200 M⁻¹ s⁻¹; koff [21]: 4.4e-05 s⁻¹
